Experimental data taken from US20140341915A1 (DEUTSCHES KREBSFORSCHUNGSZENTRUM, published 2014).

Experiments:
[1] = biological target: T1, B7-H6-Ig-fusionprotein consisting of the extracellular domain of B7-H6 fused to an IgG1-Fc domain (human, UniProt Q68D85 25-267); test: ELISA
T1 construct: Junction residues from restriction sites are not given; also called B7-H6-Ig-FP
T1 sequence: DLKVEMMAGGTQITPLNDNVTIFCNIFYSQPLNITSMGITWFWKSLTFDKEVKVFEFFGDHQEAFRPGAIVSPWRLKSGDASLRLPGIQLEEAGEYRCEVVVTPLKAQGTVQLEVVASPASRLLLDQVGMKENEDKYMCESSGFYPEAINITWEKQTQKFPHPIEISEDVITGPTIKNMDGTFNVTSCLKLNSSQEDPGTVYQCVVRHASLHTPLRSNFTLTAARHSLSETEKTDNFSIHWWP

[2] = biological target: T2, B7-H6 polypeptide on cells (BA/F3-B7-H6 transfectants; cell lines expressing B7-H6 endogenously) (human, UniProt Q68D85 25-454); test: immunohistochemistry on acetone-fixed cytospins, mAb at 5 µg/ml
T2 construct: whole, on cells; The construct used for the BA/F3 transfectants is not described
T2 sequence (looked up): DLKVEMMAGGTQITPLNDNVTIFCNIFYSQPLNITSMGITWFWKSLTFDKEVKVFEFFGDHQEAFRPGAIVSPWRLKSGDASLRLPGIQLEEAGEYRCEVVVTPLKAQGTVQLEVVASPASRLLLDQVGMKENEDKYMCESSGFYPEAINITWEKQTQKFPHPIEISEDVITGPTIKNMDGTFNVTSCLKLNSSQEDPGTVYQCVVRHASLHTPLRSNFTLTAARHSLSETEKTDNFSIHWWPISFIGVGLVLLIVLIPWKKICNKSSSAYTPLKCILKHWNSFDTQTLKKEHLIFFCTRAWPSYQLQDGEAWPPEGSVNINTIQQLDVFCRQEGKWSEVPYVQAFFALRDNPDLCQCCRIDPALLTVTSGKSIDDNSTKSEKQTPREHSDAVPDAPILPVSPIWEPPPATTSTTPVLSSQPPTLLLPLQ
Description: Acetone-fixed cytospins of a 1:1 mixture of Ba/F3 and Ba/F3-B7-H6 cells were stained using the Dual Envision+System-HRP (Dako). After blocking endogenous peroxidase activity, cytospins were blocked with 10% goat serum and 0.1 mg/ml human
IgG. […] After incubation with 3,3′-diaminobenzidine (DAB) substrate solution, cell nuclei were counterstained with Hematoxylin and mounted cyotospins were analyzed by light microscopy.

B1: anti-B7-H6 monoclonal antibody (mAb) 1.18 (antibody, V domains shown)
VH: DVKLVESGGGLVKPGGSLKLSCAASGFTFSSYTMSWVRQTPEKRLEWVATINNGGSYTYYPDSVKGRFTISRDNAKNTLYLQMSSLKSEDTAIYYCYGYDPAWFAYWGQGTLVTVSA
VL: QAVVTQESALTTSPGETVTLTCRSSTGAVTTSNYANWVQEKPDHLFTGLIGGTNNRAPGVPARFSGSLIGDKAALTITGAQTEDEAIYFCALWYSNHWVFGGGTKLTVLG
B1: binds [1]; binds [2].
